Legend:
[1] = target: HBV表面抗原 (hepatitis B virus surface antigen) (乙型肝炎病毒(HBV)); test: ELISA titre (method of Shin YW et al. 2007); formulation after 3 months
[2] = target: HBV表面抗原 (hepatitis B virus surface antigen) (乙型肝炎病毒(HBV)); test: ELISA titre (method of Shin YW et al. 2007); formulation after 6 months, 25℃, 60% R.H.
[3] = target: HBV表面抗原 (hepatitis B virus surface antigen) (乙型肝炎病毒(HBV)); test: ELISA titre (method of Shin YW et al. 2007); formulation after 3 months, 25℃, 60% R.H.
[4] = target: HBV表面抗原 (hepatitis B virus surface antigen) (乙型肝炎病毒(HBV)); test: ELISA titre (method of Shin YW et al. 2007); formulation at 0 weeks, 25℃, 60% R.H.

Measured: 滴度(IU/mg)

Hepabig基因 (从细胞系HBAb-49, 登录号KCLRF-BP-00054, 产生的针对HBV表面抗原的人抗体) (antibody)
> 2000 IU/mg: all assays above

— patent CN101896199A
